According to PMC5739284 (Nature microbiology, 2017):

Target: GST-His6-LC3B (recombinant) (human, UniProt Q9GZQ8 1-120)
Assay: pull-down

B1: synthetic p62 LIR peptide (peptide)
peptide: SGGDDDWTHLSSK
binding result: binds
